Experimental data: article PMC7290032 (Nature Communications, 2020)

Target: MCM8-9 complex, purified (human, UniProt Q9NXL9-1 1-1143; Q9UJA3-1 1-840)
Assay: cell-based or functional assay

MCM8-9 complex, purified, sequence (Q9NXL9 whole entry, chain 1 of 2): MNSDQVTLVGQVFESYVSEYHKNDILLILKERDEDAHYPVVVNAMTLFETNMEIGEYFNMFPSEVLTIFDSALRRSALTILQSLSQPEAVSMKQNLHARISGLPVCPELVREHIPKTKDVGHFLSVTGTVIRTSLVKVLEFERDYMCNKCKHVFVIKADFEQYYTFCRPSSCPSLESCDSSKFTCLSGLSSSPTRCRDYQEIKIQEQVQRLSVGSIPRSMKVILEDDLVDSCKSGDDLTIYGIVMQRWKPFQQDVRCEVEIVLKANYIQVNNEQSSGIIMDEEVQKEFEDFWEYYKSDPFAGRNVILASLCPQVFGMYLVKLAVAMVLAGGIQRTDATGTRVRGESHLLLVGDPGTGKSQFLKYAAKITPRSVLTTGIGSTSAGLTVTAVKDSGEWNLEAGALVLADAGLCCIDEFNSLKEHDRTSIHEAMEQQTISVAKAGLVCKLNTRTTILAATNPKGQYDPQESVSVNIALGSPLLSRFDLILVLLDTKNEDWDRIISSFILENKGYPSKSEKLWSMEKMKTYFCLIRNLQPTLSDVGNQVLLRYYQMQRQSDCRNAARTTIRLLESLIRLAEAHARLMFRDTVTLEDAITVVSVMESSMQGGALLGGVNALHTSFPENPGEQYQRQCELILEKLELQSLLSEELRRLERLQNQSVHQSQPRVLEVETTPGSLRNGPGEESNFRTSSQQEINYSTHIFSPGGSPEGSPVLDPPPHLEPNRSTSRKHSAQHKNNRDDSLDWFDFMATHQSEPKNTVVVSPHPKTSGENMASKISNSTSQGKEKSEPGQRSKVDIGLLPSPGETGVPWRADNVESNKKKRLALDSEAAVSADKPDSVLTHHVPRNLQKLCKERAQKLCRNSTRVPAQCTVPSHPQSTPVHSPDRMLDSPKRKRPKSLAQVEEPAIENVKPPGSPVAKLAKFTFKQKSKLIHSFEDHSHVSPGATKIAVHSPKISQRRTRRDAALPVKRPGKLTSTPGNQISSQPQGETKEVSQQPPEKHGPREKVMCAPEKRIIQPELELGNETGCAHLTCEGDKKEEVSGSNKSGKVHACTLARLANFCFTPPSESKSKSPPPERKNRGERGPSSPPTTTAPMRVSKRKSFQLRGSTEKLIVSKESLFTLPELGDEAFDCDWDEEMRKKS
MCM8-9 complex, purified, sequence (Q9UJA3 whole entry, chain 2 of 2): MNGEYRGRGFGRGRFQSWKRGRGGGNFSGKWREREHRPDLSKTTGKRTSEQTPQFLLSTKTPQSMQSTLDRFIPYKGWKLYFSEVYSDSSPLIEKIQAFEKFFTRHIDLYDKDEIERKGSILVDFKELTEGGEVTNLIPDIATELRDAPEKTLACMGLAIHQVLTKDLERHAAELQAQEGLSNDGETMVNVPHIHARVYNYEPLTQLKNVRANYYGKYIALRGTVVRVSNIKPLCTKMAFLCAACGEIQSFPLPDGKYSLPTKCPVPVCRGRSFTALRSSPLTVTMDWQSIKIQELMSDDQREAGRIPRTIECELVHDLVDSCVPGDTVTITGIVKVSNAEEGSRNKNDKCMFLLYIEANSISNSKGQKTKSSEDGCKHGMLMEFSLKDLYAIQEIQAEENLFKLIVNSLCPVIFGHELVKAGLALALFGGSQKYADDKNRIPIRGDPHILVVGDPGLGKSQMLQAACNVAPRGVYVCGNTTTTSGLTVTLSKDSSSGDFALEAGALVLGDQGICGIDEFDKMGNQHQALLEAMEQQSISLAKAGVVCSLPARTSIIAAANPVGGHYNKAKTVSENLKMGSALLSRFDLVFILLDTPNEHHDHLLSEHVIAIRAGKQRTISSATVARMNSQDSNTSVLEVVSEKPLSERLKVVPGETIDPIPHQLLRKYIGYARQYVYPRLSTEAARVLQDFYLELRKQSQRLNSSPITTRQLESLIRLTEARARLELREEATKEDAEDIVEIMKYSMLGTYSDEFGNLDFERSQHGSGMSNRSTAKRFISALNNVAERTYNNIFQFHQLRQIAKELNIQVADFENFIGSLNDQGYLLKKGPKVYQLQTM

B1: MCM8IP-FLAG WT (recombinant) (natural protein, human, UniProt Q8N3J3-4 1-646, looked up)
chain: MACSLQKLFAVEEEFEDEDFLSAVEDAENRFTGSLPVNAGRLRPVSSRPQETVQAQSSRLLLLHPTAPSEALGLPDLDLCLPASSTPSADSRPSCIGAAPLRPVSTSSSWIGNQRRVTVTEVLRETARPQSSALHPLLTFESQQQQVGGFEGPEQDEFDKVLASMELEEPGMELECGVSSEAIPILPAQQREGSVLAKKARVVDLSGSCQKGPVPAIHKAGIMSAQDESLDPVIQCRTPRPPLRPGAVGHLPVPTALTVPTQQLHWEVCPQRSPVQALQPLQAARGTIQSSPQNRFPCQPFQSPSSWLSGKAHLPRPRTPNSSCSTPSRTSSGLFPRIPLQPQAPVSSIGSPVGTPKGPQGALQTPIVTNHLVQLVTAASRTPQQPTHPSTRAKTRRFPGPAGILPHQQSGRSLEDIMVSAPQTPTHGALAKFQTEIVASSQASVEEDFGRGPWLTMKSTLGLDERDPSCFLCTYSIVMVLRKAALKQLPRNKVPNMAVMIKSLTRSTMDASVVFKDPTGEMQGTVHRLLLETCQNELKPGSVLLLKQIGVFSPSLRNHYLNVTPNNLVHIYSPDSGDGSFLKPSQPFPKDSGSFQHDVAAKPEEGFRTAQNLEAEASPEEELPEADDLDGLLSELPEDFFCGTSS
DNA unwinding (helicase assay): 32P-labelled oligo annealed to M13mp18 ssDNA, MCM8-9 100 nM, MCM8IP 50 nM, with ATP: ~6 fold
